According to patent publication US7713943B2, “Further use of protein kinase N beta” (Silence Therapeutics Aktiengesellschaft (AG), priority 2002, dated 2010):
Residue numbers refer to the chain shown, from its start. Entries after “also recorded” stand apart in the source; their conditions may differ. Values belong to the molecule of their own block, whether it stands above or below them.

Tests used:
GST-GSK3 fusion protein = test: Non-radioactive in vitro kinase assay, anti-phospho GSK3alpha Western blot; type: biochemical; details: immune precipitates, 200 μM rATP, FIG. 11A
Method: The second half of the immune precipitates was incubated with 1 μg GST-GSK3 fusion protein (Cell Signaling Technology) as a phosphorylation substrate in the presence of 200 μM rATP. The reaction mixture was subsequently analyzed by 8-16% gradient SDS-PAGE and Western blotting using the anti-phospho GSK3alpha antibody (Cell Signaling Technology) (FIG. 11A).
The specificity of the in vitro phosphorylation reactions was controlled by analyzing kinase defective variants (e.g. containing mutations in the ATP binding site, see above) in parallel to active protein.
In a first step, the suitability of a non-radioactive screening formate was determined, whereby the various protein kinase N beta derivatives as already discussed in connection with example 10, were used for phosphorylating a suitable substrate. Such substrate may, for example, be MBP or a GSK3 peptide which is typically immobilised on a suitable carrier such as agarose- or sepharose beads or on plastic surfaces. In the present case and as depicted in FIG. 11A, the substrate is a GSK3-derived peptide fused to paramyosin. […] The phosphorylated substrate in the present case was detected by anti-phospho GSK3 alpha antibody (mentioned above).

[1] = tested on: MPB (myelin basic protein); test: In vitro kinase activity of protein kinase N beta derivatives, MPB/MBP phosphorylation; type: biochemical; parameters: key to Activity: +: active; −: inactive; !: no “hyper activation” was observed as one might have expected from comparable mutations in other kinases (Morgan and Debond, 1994); details: for phosphorylation of MBP, 32P incorporation: immune precipitates, gamma 32P-ATP, autoradiography, FIG. 11B
Method: The respective fragments were transiently epressed in HeLa cells. Their relative expression was determined by Western-blot analysis of Hela cell extracts using an anti-PKNbeta antibody.
MPB is myelin basic protein which is a standard in vitro phosphorylation substrate.
As may be taken from FIG. 9A apart from the full-length protein kinase N beta only the kinase domain in its otherwise wildtype form is active in phosphorylating MPB.
The PKNbeta-derived molecules were immune-precipitated from the cell extracts shown in FIG. 10 by using anti-tag antibodies. The immune precipitates were washed as described (Klippel et al., 1996) and divided in two halfs. One half was incubated with 5 μg MBP (UBI) as a phosphorylation substrate, 4 mM MgCl2 and gamma ^32P-ATP in a buffered solution for 10 min at room temperature. In addition, phosphatase inhibitors and inhibitors against unspecifically acting kinases were added as in Klippel et al., 1998. Incorporation of radioactive phosphate was detected by autoradiography after separating the reaction products by 16% SDS-PAGE (FIG. 11B).

B2: full length KE: full length protein kinase N beta with kinase defective KE mutation at position 588 (protein)
chain: MEEGAPRQPGPSQWPPEDEKEVIRRAIQKELKIKEGVENLRRVATDRRHLGHVQQLLRSSNRRLEQLHGELRELHARILLPGPGPGPAEPVASGPRPWAEQLRARHLEALRRQLHVELKVKQGAENMTHTCASGTPKERKLLAAAQQMLRDSQLKVALLRMKISSLEASGSPEPGPELLAEELQHRLHVEAAVAEGAKNVVKLLSSRRTQDRKALAEAQAQLQESSQKLDLLRLALEQLLEQLPPAHPLRSRVTRELRAAVPGYPQPSGTPVKPTALTGTLQVRLLGCEQLLTAVPGRSPAAALASSPSEGWLRTKAKHQRGRGELASEVLAVLKVDNRVVGQTGWGQVAEQSWDQTFVIPLERARELEIGVHWRDWRQLCGVAFLRLEDFLDNACHQLSLSLVPQGLLFAQVTFCDPVIERRPRLQRQERIFSKRRGQDFLRRSQMNLGMAAWGRLVMNLLPPCSSPSTISPPKGCPRTPTTLREASDPATPSNFLPKKTPLGEEMTPPPKPPRLYLPQEPTSEETPRTKRPHMEPRTRRGPSPPASPTRKPPRLQDFRCLAVLGRGHFGKVLLVQFKGTGKYYAIEALKKQEVLSRDEIESLYCEKRILEAVGCTGHPFLLSLLVCFQTSSHARFVTEFVPGGDLMMQIHEDVFPEPQARFYVACVVLGLQFLHEKKIIYRDLKLDNLLLDAQGFLKIADFGLCKEGIGFGDRTSTFCGTPEFLAPEVLTQEAYTQAVDWWALGVLLYEMLVGECPFPGDTEEEVFDCIVNMDAPYPGFLSVQGLEFIQKLLQKCPEKRLGAGEQDAEEIKVQPFFRTTNWQALLARTIQPPFVPTLCGPADLRYFEGEFTGLPPALTPPAPHSLLTARQQAAFRDFDFVSERFLEP
phosphorylation of GSK3-derived substrate (GST-GSK3 fusion protein): no
phosphorylation of MBP, 32P incorporation [1]: background activity of unspecific kinases

B3: full length TA: full length protein kinase N beta with TA mutation at amino acid 718 (protein)
chain: B2 chain with E588K, T718A
phosphorylation of GSK3-derived substrate (GST-GSK3 fusion protein): no
phosphorylation of MBP, 32P incorporation [1]: background activity of unspecific kinases

Continued, in another order:

phosphorylation of MBP, 32P incorporation [1]: show activity
phosphorylating MPB (FIG. 9A) ([1]; transient overexpression in HeLa cells): active
B1: Full length wt: full length wildtype PKNbeta molecule (889 amino acids) (protein)
chain: B2 chain with E588K
phosphorylation of GSK3-derived substrate (GST-GSK3 fusion protein; listed as full length wildtype protein kinase N beta): suitable to phosphorylate the substrate; also recorded: show activity

Activity ([1]; transient overexpression in HeLa cells, MPB substrate, FIG. 9): −*
B4: ΔN comprising amino acids 288-889: protein kinase N beta derivative comprising amino acids 288-889 (protein, UniProt Q6P5Z2 288-889, looked up, fragment)
chain: CEQLLTAVPGRSPAAALASSPSEGWLRTKAKHQRGRGELASEVLAVLKVDNRVVGQTGWGQVAEQSWDQTFVIPLERARELEIGVHWRDWRQLCGVAFLRLEDFLDNACHQLSLSLVPQGLLFAQVTFCDPVIERRPRLQRQERIFSKRRGQDFLRASQMNLGMAAWGRLVMNLLPPCSSPSTISPPKGCPRTPTTLREASDPATPSNFLPKKTPLGEEMTPPPKPPRLYLPQEPTSEETPRTKRPHMEPRTRRGPSPPASPTRKPPRLQDFRCLAVLGRGHFGKVLLVQFKGTGKYYAIKALKKQEVLSRDEIESLYCEKRILEAVGCTGHPFLLSLLACFQTSSHACFVTEFVPGGDLMMQIHEDVFPEPQARFYVACVVLGLQFLHEKKIIYRDLKLDNLLLDAQGFLKIADFGLCKEGIGFGDRTSTFCGTPEFLAPEVLTQEAYTRAVDWWGLGVLLYEMLVGECPFPGDTEEEVFDCIVNMDAPYPGFLSVQGLEFIQKLLQKCPEKRLGAGEQDAEEIKVQPFFRTTNWQALLARTIQPPFVPTLCGPADLRYFEGEFTGLPPALTPPAPHSLLTARQQAAFRDFDFVSERFLEP
